Source: patent US20090291088A1, “THERAPEUTIC COMBINATIONS OF ANTI-IGF-1R ANTIBODIES AND OTHER COMPOUNDS” (Biogen Idec MA Inc., priority 2008, published 2009)
Where a chain is given by its changes, count along the chain named.

B1: P1A2.2B11: murine anti-human IGF-1R monoclonal antibody from hybridoma; VH SEQ ID NO:48, VL SEQ ID NO:108 (antibody, V domains shown)
VH: QIQLVQSGPELKKPGETVKISCKASGYTFTNHGMNWVKQAPGKGLKWMGWNTSTGEPTYADDFKGRFAFSLETSASTAFLQINNLKNEDTASYFCASPLYYMYGRYIDVWGAGTAVTVSS
VL: DIQMTQTTSSLSASLGDRVTISCRASQDISNYLNWYQQKPDGTIKLLIYYTSRLHSGVPSRFSGSGSGTDYSLTISNLEQEDFATYFCQQGKTLPWTFGGGTKLEIK
modifications: Antibody variable heavy chain sequence; Antibody variable light chain sequence
B2: P1G10.2B8: murine anti-human IGF-1R monoclonal antibody from hybridoma; VH SEQ ID NO:58, VL SEQ ID NO:113 (antibody, V domains shown)
VH: QIQLVQSGPDLKKPGETVKISCKASGYTFTNHGMNWVKQAPGKDLKWMGWINTNTGEPTYADDFKGRFAFSLETSASTAYLQINNLKNEDTATYFCASPLYYRNGRYFDVWGAGTTVTVSS
VL: B1 VL with T43S, I44V, F83I
modifications: Antibody variable heavy chain sequence; Antibody variable light chain sequence
B3: P2A7.3E11: murine anti-human IGF-1R monoclonal antibody from hybridoma; VH SEQ ID NO:38, VL SEQ ID NO:98 (antibody, V domains shown)
VH: QVQLQQSGPELVKPGASVKMSCKASGNTFTDYVINWVKQRTGQGLEWIGEIYPGNENTYYNEKFKGKATLTADKSSNTAYMQLSSLTSEDSAVYFCARGIYYYGSRTRTMDYWGQGTSVTVSS
VL: EVVLTQSPTAMAASPGEKITITCSASSTLSSNYLHWYQQKPGFSPKLLIYRTSNLASGVPGRFSGSGSGTSYSLTIGTMEAEDVATYYCQQGSSIPLTFGAGTKLELK
modifications: Antibody variable heavy chain sequence; Antibody variable light chain sequence
B4: P1E2.3B12: murine anti-human IGF-1R monoclonal antibody from hybridoma; VH SEQ ID NO:63, VL SEQ ID NO:118 (antibody, V domains shown)
VH: QVQLQQPGAELVKPGASVKLSCKASGYTFTSYWMHWVKQRPGQGLEWIGEINPTYGRSNYNEKFKSKATLTVDKSSSTAYMQLSSLTSEDSAVYYCARLVRLRYFDVWGAGTTVTVSS
VL: DIVMTQAAFSNPVTLGTSASISCRSSKSLLHSNGITYLYWYLQKPGQSPQLLIYQMSNLASGVPDRFSSSGSGTDFTLRISRVEAEDVGVYYCAQNLELPYTFGGGTKLEIK
modifications: Antibody variable heavy chain sequence; Antibody variable light chain sequence

system: Calu-6; experiment: IGF driven tumor cell growth, CELL TITER-GLO, Calu-6; assay type: cell-based, human; conditions: lung cancer cells
Description: (§1) NCI-H23, Calu-6, Colo-205, Panc-1, BxPC-3 (ATCC) tumor lines were purchased from ATCC. Cell lines were grown in complete growth medium containing RPMI-1640 (ATCC), 10% fetal bovine serum (Irvine Scientific Inc.) and 50 μg/ml of Gentamycin (Gibco, Invitrogen). Trypsin-EDTA solution (Sigma) was used for removal of adherent cells from culture vessels. Phosphate buffered saline, pH 7.2, was from MediaTech Inc The 96-well clear bottom plates for luminescent assay was purchased from Wallac Inc.
(§2) Cells grown to 80% monolayers were, trypsinized, washed, resuspended and plated into 96-well plates in 200 μl of 2% growth medium at 8×10^3 cells/well for NCI-H23 and Colo-205 cells; and 5×10^3 cells/well for Calu-6, Panc-1 and BxPC-3 cells. After 24 hours, the culture medium was replaced with 100 μl of serum free medium (SFM), and 50 μl of serially diluted antibodies at 4× concentration was added. […] All treatments were done in triplicates. Cell growth was measured using the CELL TITER-GLO™ Luminescent Cell Viability Assay (Promega, Madison, Wis.). The 1:1 mixture of reagent and SFM was added at 200 μl/well. Luminescence was detected on Wallac (Boston, Mass.) plate reader.
(§3) The ability of the selected murine antibodies to inhibit IGF/IGF-1R dependent in vitro growth of several human tumor lines (Lung, H-23, Calu-6; Pancreas, BxPc-3, Panc-1, MiaPaCa and Colon Colo205) was measured by a proliferation assay described in Example 13.

Molecule | Proliferation of Tumor Cells Calu-6
B1 | ++ (>30%@1 μg/ml)
B2 | ++ (>30%@1 μg/ml)
B3 | +++ (>30%@0.1 μg/ml)
B4 | ++ (>30%@1 μg/ml)

system: NCI-H23; experiment: IGF driven tumor cell growth, CELL TITER-GLO, H-23; assay type: cell-based, human; conditions: NCI-H23 lung tumor cell line
Description: as §1, §2, §3
A commercially available anti-IGF-1R antibody (IR3) was used as a positive control. The mouse IgG (anti-IDectin, IgG1) and human gamma 4 version of IDEC-152 antibody of irrelevant specificity were used as isotype matched controls for the experiments. […]

Molecule | inhibition of IGF-1 and IGF-2 driven cell proliferation in H-23
B1 | showed inhibition
B3 | showed inhibition

same assay, conditions: lung cancer cells

Molecule | Proliferation of Tumor Cells H-23
B1 | +++ (>30%@0.1 μg/ml)
B2 | +++ (>30%@0.1 μg/ml)
B3 | ++++ (>30%@0.01 μg/ml)
B4 | ++++ (>30%@0.01 μg/ml)

system: MCF-7; experiment: Ki67 inhibition in MCF-7 cells; assay type: cell-based, human; conditions: breast cancer cell

Molecule | Proliferation of Tumor Cells MCF-7* (Ki67 Inhibit.)
B1 | ++ (>50%@1 μg/ml)
B2 | +++ (>50%@0.1 μg/ml)
B3 | ++ (>50%@1 μg/ml)
B4 | ++ (>50%@1 μg/ml)

target: T1, IGF-1R (Homo sapiens, UniProt P08069); experiment: Ligand blocking assay (RIA): 125I-IGF-1 / 125I-IGF-2 binding to immobilized IGF-1R; conditions: murine monoclonal antibodies
T1 construct: human IGF-1R(1-903)-Fc (denoted hIGF-1R-Fc, generated by Biogen Idec)
Description: Ligand blocking assay (RIA). […] Insulin (Arg-Insulin, Cat #01-207) was purchased from Upstate Cell Signaling Solutions (Lake Placid, N.Y. (now part of Millipore, Concord, Mass. (USA)). ^125I-rhIGF-1 (Cat # IM172), ^125I-rhIGF-2 (Cat# IM238) and ^125I-rhInsulin (Cat# IM166) were purchased from Amersham Biosciences (Piscataway, N.J.). AffiPure goat anti-human IgG, Fcγ fragment specific antibodies (Cat #109-005-098, Jackson ImmunoResearch, West Grove, Pa.) was used for IGF-1R-Fc capture. As detection antibody, goat anti-mouse IgG HRP (Cat #1030-05, Southern Biotech Birmingham, Ala.) was used.
Human insulin receptor α-subunit specific antibodies, Clone 83-14, (Cat #AHR0221, Biosource International, Inc., Camarillo, Calif.) and the 47-9 (Cat #E55502M, Biodesign International, Saco, M E) were used as positive controls blocking of insulin-insulin receptor binding experiments. Recombinant IGF-1R-Fc fusion protein was produced at Biogen Idec (Cambridge, Mass.).
As isotype matched mouse negative control antibodies, 2B8 (murine α-CD20.1gG,) and 2B8 mkm.G2a (murine α-CD20 MAb, IgG2a, Biogen Idec, Lot #NB3304-87, San Diego, Calif.) were used. The negative control for Fabs was R001-1B provided by Christilyn Graff (Biogen Idec, Cambridge, Mass.). PBS used in buffers was from BioWhittaker (Cat. # 17-513F, Walkersville, Md.).
Recombinant human IGF-1R (Histidine tagged version) or IGF-1R-Fc was coated onto IMMULON2 HB (high binding) Removawell strips (Dynex Technologies, Inc., cat. #6302) diluted with carbonate coating buffer pH 9.5 to a concentration of 250 ng/well. After overnight incubation at 4° C., the wells were washed three times with washing buffer (0.05% Tween 20/PBS) then blocked with blocking buffer (3% BSA/PBS) for one hour at room temperature. The blocking buffer was removed and the wells washed three more times. Antibody, Fab, or ligand preparations were diluted to desired concentration with dilution buffer (1% BSA/0.05% Tween 20/PBS) and plated at 50 μl per well in duplicate. After 45 minutes at room temperature, 100,000 cpm of either [125I] rhIGF-1 or [125I] rhIGF-2 in 50 μl dilution buffer was added per well. This was incubated at room temperature for one more hour. The wells were washed again three more times and left liquid free after the last wash. The air-dried wells were counted with the Isodata Gamma Counter.
Alternatively, Fabs were evaluated by a modified capture assay, where the IGF-1R-Fc was captured using anti-human IgG immobilized to a plate. Immobilization was carried out by overnight incubation of goat anti-human IgG, Fcγ fragment specific antibody (200 ng/well) in carbonate coating buffer. The wells were washed, blocked and 250 ng of IGF-1R-Fc was added per well.
The ligand blocking ability of the anti-IGF-1R antibody was determined by a solid phase RIA capture method as described in Example 3. […] After 1 hour of incubation at room temperature, the wells were washed and counted for bound radioactivity by a Gamma Counter. An isotype matched negative antibody control, IDEC-151 (human G4), was used. Percent (%) inhibition was calculated as =[1−(Ave.CPM with Ab)/(Ave.CPM with buffer)]×100%.

IGF Blocking IGF-1 | Molecule
+++ (>40%@0.1 μg/ml) | B1
+++ (>40%@0.1 μg/ml) | B2
+++ (>40%@0.1 μg/ml) | B3
+++ (>40%@0.1 μg/ml) | B4

system: Colo-205; experiment: IGF driven tumor cell growth, CELL TITER-GLO, Colo-205; assay type: cell-based, human; conditions: colon cancer cell
Description: as §1, §2, §3

Molecule | Proliferation of Tumor Cells Colo-205
B1 | +++ (>30%@0.1 μg/ml)
B2 | ++ (>30%@1 μg/ml)
B3 | +++ (>30%@0.1 μg/ml)
B4 | ++ (>30%@1 μg/ml)

system: Panc-1; experiment: IGF driven tumor cell growth, CELL TITER-GLO, Panc-1; assay type: cell-based, human; conditions: pancreatic cancer cell
Description: as §1, §2, §3

Molecule | Proliferation of Tumor Cells Panc-1
B1 | +++ (>30%@0.1 μg/ml)
B2 | + (>30%@10 μg/ml)
B3 | ++++ (>30%@0.01 μg/ml)
B4 | ++ (>30%@1 μg/ml)

target: T2, IGF-1R phosphorylation (Homo sapiens, UniProt P08069); experiment: Inhibition of IGF-1 and IGF-2 mediated IGF-1R phosphorylation in MCF-7 cells (ELISA); assay type: cell-based; conditions: murine monoclonal antibodies
T2 construct: wild type IGF-1R expressed on MCF-7 tumor cells; endogenous in cells; host or cells: MCF-7
Description: Cell lines: IGF1R expressing human breast carcinoma cell line MCF-7 (NCI) were maintained at 37° C. and 5% CO2 in MEM eagle (ATCC) containing 10% FBS, 1× non-essential amino acids, 2 mM L-glutamine, 1 mM sodium pyruvate and 1000 U/ml penicillin and streptomycin. Cells were sub-cultured twice weekly for maintenance and assay, and used with a maximum of 12 passages.
MCF-7 cells were plated in 2 ml growth media at 2×10^5 to 4.0×10^5 cells/well in Ploy-D-Lysine coated 12 well plates (BD Biosciences, #35-6470) and cultured at 37° C., 5% CO2. At 48 hours, media removed and cells serum starved overnight at 37° C., 5% CO2 Serum free media was removed and control or test antibodies at indicated concentration were added in 350 ul of fresh serum free media and incubated for 1 hour at room temperature, or alternately at 37° C. Fabs were tested at 200 nM, 20 nM and 2 nM concentration and the mAbs were tested at 67, 6.7 and 0.67 nM. The commercial anti-IGF-1R control antibody used was αIR3 (EMD biosciences, Oncogene Research products, #D27249). […] Ligand was incubated at […] for 37° C. antibody experiments. Cells were lysed in 1× cell lysis buffer (Cell Signal Technologies, #9803) with 1 mM PMSF for 1 hour at room temperature.
Cell lysates were added to ELISA plates pre-coated with IGF-1Rp antibody (Clone 1-2, Biosource International, #AHR0361) and incubated for 2 hours. Following which plates were washed and the plate bound phosphorylated receptor was detected with the biotin labeled anti-phosphotyrosine antibody 4G10 (Catalog #16-103, Upstate Cell Signaling Solutions (Lake Placid, N.Y. (now part of Millipore, Concord, Mass. (USA)) and streptavidin-HRP (BD Pharmingen, #554066). Assay is developed by addition of TMB substrate (Kierkegaard & Perry, #50-76-00) and color stopped by addition of […] (LabChem, Cat#LC25830-1). Optical density is measured at 450 nm using a Molecular Devices plate reader and percent inhibition over the ligand control is calculated for each antibody-ligand sample.
The effect of human anti-IGF-1R antibodies on IGF-1R signaling was evaluated using MCF-7 cells (human breast adenocarcinoma cells).

Inhibition of IGF-1R.pTyr IGF-1 | Inhibition of IGF-1R.pTyr IGF-2 | Molecule
+++ (>30%@0.1 μg/ml) | +++ (>30%@0.1 μg/ml) | B1
+++ (>30%@0.1 μg/ml) | +++ (>30%@0.1 μg/ml) | B2
+++ (>30%@0.1 μg/ml) | ++ (>30%@1 μg/ml) | B3
+++ (>30%@0.1 μg/ml) | +++ (>30%@0.1 μg/ml) | B4
